B1: SH3-containing GRB2-like protein 1 (SH3 domain protein 2B) (SH3p8) (other, mouse, UniProt Q62419 1-368, looked up)
chain: MSVAGLKKQFYKASQLVSEKVGGAEGTKLDDDFKDMEKKVDVTSKAVAEVLVRTIEYLQPNPASRAKLTMLNTVSKIRGQVKNPGYPQSEGLLGECMVRHGKELGGESNFGDALLDAGESMKRLAEVKDSLDIEVKQNFIDPLQNLCDKDLKEIQHHLKKLEGRRLDFDYKKKRQGKIPDEELRQALEKFEESKEVAETSMHNLLETDIEQVSQLSALVDAQLDYHRQAVQILEELADKLKRRVREASSRPKREFKPRPREPFELGELEQPNGGFPCAPAPKITASSSFRSSDKPIRMPSKSMPPLDQPSCKALYDFEPENDGELGFREGDLITLTNQIDENWYEGMLHGQSGFFPLSYVQVLVPLPQ
notes: also called SH3G1_MOUSE
B2: Guanine nucleotide-binding protein G(o); alpha subunit 1 (other, mouse, UniProt P18872 2-354, looked up)
chain: GCTLSAEERAALERSKAIEKNLKEDGISAAKDVKLLLLGAGESGKSTIVKQMKIIHEDGFSGEDVKQYKPVVYSNTIQSLAAIVRAMDTLGVEYGDKERKTDSKMVCDVVSRMEDTEPFSAELLSAMMRLWGDSGIQECFNRSREYQLNDSAKYYLDSLDRIGAGDYQPTEQDILRTRVKTTGIVETHFTFKNLHFRLFDVGGQRSERKKWIHCFEDVTAIIFCVALSGYDQVLHEDETTNRMHESLMLFDSICNNKFFIDTSIILFLNKKDLFGEKIKKSPLTICFPEYPGSNTYEDAAAYIQTQFESKNRSPNKEIYCHMTCATDTNNIQVVFDAVTDIIIANNLRGCGLY
notes: also called GNAO1_MOUSE

What was measured:
APP-TAP-AICD [1] = biological target: T1, APP-TAP-AICD (human, UniProt P05067 18-695); test: streptavidin purification of APP-TAP-AICD from brain homogenate; LTQ-FT semiquantitative method, transgenic mouse 75 vs control mouse 72
APP-TAP-AICD [2] = biological target: T1, APP-TAP-AICD; test: streptavidin purification of APP-TAP-AICD from brain homogenate; iTRAQ 116/114, transgenic mouse 75 vs control mouse 72; MALDI-TOF/TOF;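 further: relative protein abundance in the transgenic versus control pull-down, limited to proteins with high quality scores and above-average enrichment, without full normalization across the whole measurement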
APP-TAP-AICD [3] = biological target: T2, APP-TAP-AICD (human, UniProt P05067-4 18-695); test: as above
T2 construct: Bait purified from brain homogenate of hemizygous transgenic mice via streptavidin; full-length APP and cleaved C-terminal stubs are isolated; also called TAP-tagged full-length human APP

Binder	probability that this protein is enriched (APP-TAP-AICD [1])	iTRAQ ratio (APP-TAP-AICD [2])	iTRAQ ratio (APP-TAP-AICD [3])
B1	1	3.64	
B2			3.38
